# Experimental data from the domain aggregation screens of Martell et al. (2025).
# Assay: soluble fraction after stress (log2 fold change); higher = more stays soluble; pooled small domains, quantitative proteomics
# Conditions: stress: 50 degC
# Procedure, shortened: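 The stress applied to every library was 50°C. These custom libraries of small protein domains were pooled and measured at high throughput with quantitative proteomics as the read-out. Aggregation propensity is expressed as the base-two logarithm of the fold change in how much of each protein remains soluble. The higher the value, the more of that protein stays in solution.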
row,Sequence,soluble fraction (log2)
1,HMSIGLEGFVGKLGISTSDLRPSGWGEFDAKKLFVVTEGEFVDRKEKIEILSVDGNRILVRKIS,-0.751
2,HMEDGEVTVPDLRGLTIKEAGTILEKLGLHLSPVGTGLAVRQDVAPGSKVARDTTITVEFEPPDIQVLR,0.103
3,HMFTKYSPDFKLSVILDMRKNNLGYGEVVRKYWNLDSYKESDRHRSQVRLWERIFLEEGVEGFM,-4.64
4,HMVTQVDYGTFLTRIDEGKVKSVEIQDNQIAFTAIDEAGKENIYVTGKVNDPELVDRLLAADIEDFSQVIP,0.12
5,HMSEFLTIVRAVYSGLSRRKVAAMHKVSRNTVSLYLRQARDQGWLTLEDLEKLDDLTVSQGVS,-2
6,HMLNLNEAEKSIYVLIKKNESNNLNKVKEDSNLSNKAWDKGIKNLVKNNLVKVVKSNEGLFIQLV,-0.345
7,HMSEEGTIPDVSGQDEASAQKALENAGFTNIKSEAVYSEEEQGTVIDTNPTAGTKVSKDTEITMQVSKGSE,-0.34
8,HMIITTPYKVTASAINIRSGRGTSYSIIGTVSKGQTVDVYNNSLSKGWVKVKFSGSVGYAYAKYLEK,-0.299
9,HMLLGDYIQKLRNQRGLSQQEFADKLGIGRSTLANYEQNKRSPDYETLIEISKFFNVSIDELLGV,-0.484
10,HMNAVYAEERRAYILAALEKRGTVHSYELAEQMGVSRETIRRDIMELSNRGLLVKTHGGAIST,-0.686
11,HMQNSYSVEDLALKAGLSVDTIRYYQGLDLIAPPQKNGRRAIYGDEHLSRLDEIKKLALEGFSLRQISLLK,-0.652
12,HMAESSPYTVRPGDTLWKILAQTQNARYNDFPYLYRKFRELNPNITDLNHIVSGQKIIVPHIPG,0.0168
13,HMDPVATLTPREREVLELMAEGRTNAGIAEAMVVTEGAVEKHIQRIFAKLGLHADGGVHRRVAAVLALLG,-1.01
14,HMTDDFAGRFNELLIHNQETAVTAATRLEVSPAVITKWRQGKSIPSGEYIKRIVETYHVSADYLLGVIDTP,-0.445
15,HMGGDFVEHLKDLASEAPVIRLVNTIIGRVIDLRASDIHLEPFDDGLHVRYRVDGVIHPGELVPPRLS,0.0558
16,HMRETELPVTIISAGRILAENLHLAGRDGGWLEAELKRRSLTAEQVLLLTVDAAGTVYLVRKEDL,-0.0641
17,HMTKINAPMPGNILDVKVNVGDHVEANQLVLMLEAMKMENEIFTPVAGTVVGVHVKKGDSVNSDDLLISI,-0.228
18,HMAIPTTDSDKATDAQIKQIKLLGDIHPNLKLDAWLERNHVTWETLTREQAGNMMKAIKNKYGD,-0.00881
19,HMAKDDFMSFVKAVWPEFIEGAHHRVIAQKFNDLATGKITRLIVNMPPRHTKSEFASYLLPAW,0.107
20,HMSNWTILIIQGSAHLIDLDSKITEIDGFGSFPTKILQDYNLNEEFEIFDTNVKMVNSVQSDLQSN,-2.56
21,HMAPLEPLTDRETEMLVRLANGASNKVMARESFVSENTIKFHLKNIYAKLGVTSRLQAIAAARNQGLI,-0.891
22,HMTLSDIGHAVRTRRTELGLSQVQLARLSGLSRQTLVGLENGTLNDLGINRVAQLLAVLGLDAP,-0.827
23,HMPEQLLNTRIPLEFAGRRFDASLAELFPDYSRSRLAAWIKDGAARLDGETVAPRHTVRGGEQVEILVRM,-0.238
24,HMKDPSFELMSVAESFYRSGNVDHAVYALEKYLEVYADGDYTDRAHDLLSQARKGLTYPHGYPPLQI,-1.21
25,HMSLAVFLQGLLEEKQLKKADVIRRTGMEPTYGYHIFDGHKKHPARSKVLLLALAMGLTVKEAQHLLYYAG,-0.116

row,Sequence,soluble fraction (log2)
1,HMAIKWTPEIEDEVSNKLKEKWSPEQISAWLKKNKSIMISHQRIYQFIVEDKMSGGNLYRNLRQ,-0.695
2,HMEGYLYLSESQNELILKNLKTPLKYNLYNASGKLIKKGNIKNTLDISELPKGVYIFTSSDNSFSKKFLKT,-0.0444
3,HMQQPVVVQQNQTVRVVTGGPGFQVANEGRALNNGLAGQVVQVRLGNGQIISGIARAGGIVEIL,0.0705
4,HMIVVMQPGATKEQVQAVIDRVAEFGFQTKLAPGAERMVIGVVGSPLPDTLKEALERLPGVEEVIRVSKR,-0.0691
5,HMELNDEELIKGIQELLTKIGYDPGEINGVLGIKTSSAISAFQQSRNKAITGEADLDLLVQLQIELRKITT,-0.674
6,HMSEKLTLEAANEAAGMRIDKWLAMQLPELSRSRIEALISGGGVVVNGKNPSKSLKLKGGEQIELEIPE,0.0725
7,HMPKMDGLTVMEQVNQDHFVNKRPYFIVITAVGQEKITEDAFNKGANYYVMKPFNNNMLLERIKSVRK,0.294
8,HMSSSKVAISQFEELVDQGQVREVVIEGSTATGTTAAGRRFAAEIPPGGMELFLSKLDDAGTTYEYSPP,≥ 0.62
9,HMAARLMRALIPYAQGGLLAKLHEDGQVLSEEYTGEGIEVKALADEQLFGRLTVQLGEQAVSWQD,0.16
10,HMEDVRSLTGPEKAAIILLSLGEEHGQGVWRMFDDEEVKEVSQIMANLGTISASVVEKLLVEFVSQMST,-0.873
11,HMEKELVSDFASRISTARSSKGWNHAELGKRMAETVNVIKSAESGKPPTDSVVKKLERVLGITLMEV,-0.17
12,HMDEKSGWLHLAPHEGALRAALYAEHAVQEERTAPDGSQWLRLVLREKHYHQIQSKYNRRLTLHTQPDPS,0.113
13,HMINFLSKREIEVLRLVADGLSNRDVGQYLFISESTVKRHLSTIYEKLAVKSRTQAIDHARRADL,-3.91
14,HMQTGYHVRITASTLNVRRDHSASSAVATQVRRGEVYTIVDEYNNGGTLWGKLKSGAGWIALKYTQS,-1.81
15,HMNGEAQTMYVTARTLNVRKGPGTSYAKAGTLSRGTAVQVVGFSGNWAKLSNGYYVSTSYLAKI,-1.32
16,HMNQTTYTVLYSGMDPADTGKVLTALNEMGVDARTQGEDTVLVPADRADEIRLELAAQGYPTS,0.0864
17,HMSLPKIVVPTDVTVSQLAKYLEVDAISIIKQLFGMGVVASLNQRLEDEIIQLIGNEFGKEIIFSE,-0.054
18,HMEAGLRMPEQLTAFSALALLQKVRDSGPLTDAQKEQLDADVLRIEASHFGKADREALELEEILKQWLSRV,-0.135
19,HMESIPDELLEAFKQDPAFKQAFYALTAGRQRGYIIHFSQPKQSQTRIGRIEKYKEQIFNGIGLN,-0.643
20,HMKSFIWKQYTVQITKKNVKNTNVRIKRDNPHVILMSIPYSATYKAGLLALETPHIRHWLDNYERKLKQ,-1.48
21,HMRAVPSIAFVTQKLIEQGVTMEQLVRSLLLDHEEYENDDSLERTADELFGKARMIISNYTPE,-1.01
22,HMVEYIENINLSEKQKFIAHEILKEIRGRAIFLRDVGLDYLNLSRKAGTLSGGEAQRIRLATQIGSA,0.226
23,HMKFGEQIKERRQELDLTQAEVAEKLFVTRQAVSNWEHNKTYPDLNMLVKISNVYQISLDSLLR,-1.23
24,HMREPQMVTVNGDKVTHGHAYRSNVNPEDWYFTARINGQQLKPQKMEPADVAAYDKKEIGVPELMQR,-0.0941
25,HMNILVAISDTGEIWINKRRVDARAVQANIERLHAENPQGTVVIQADKQATTETLIKVMDASRAAGVFDVS,-0.618

row,Sequence,soluble fraction (log2)
1,HMFGSKDVKRAIEDYAAAMSSQPRALSAPQRKVLIRHLATSGLLQLRGAAKIVADELGISRASVYNALKV,-0.436
2,HMAFDESLVRSIQELLSELGYSPGKIDGLLGAKTVAAIKAFELEINKDQLTGEPSEELLIALQLAIRSSKM,-1.13
3,HMSSSYTEMQLERFKELLNKETLLSSEKNELKNLISDFDKISEIVSPLVVGAYLQLKNEHIETINSLG,-0.192
4,HMKETLSDTVSRKLEDMITTQMKAGNRLPTEMVLAEMYSVGRSTIRESLKALSSKGLIVRKKDGTFVSDRV,-0.109
5,HMSAQQTFLRDAMRRLNMTRDSFAERIGVRRRALDTWLLPEDSSEYRTMPSIVEKFVGEILGREA,-0.453
6,HMPVPSPAEQTATQLANIERHTGITVDGWTRAIAEAGAAKHGEIVAWLKQQGLTHGNANALAHAVRARQSG,0.27
7,HMLKPIHKDWSPNGDAKEILLKAGITEEFIQKELPEFIMYWSERNEESDIWNSKFIAHIRRRWGRFS,-1.14
8,HMGEKVIAVSGGFDPIHVGHLRMMQDAAQHGRLVVIVNSDEWLLKKKGYVFMPWEERAELIGAYDFVDE,-0.977
9,HMRWSDQKEIVTLSLDHVLVEKGRKTKEYSWREFRTFTAFEIKKSSKDQINLGFKSKGNTVIIGNF,-0.919
10,HMSLQDYYQVLGVFYNAGDKEIKRRWKELINQYHPDLAQAKGASPEEIENYTLKMAEINNAYEQIMKSRKA,0.0274
11,HMIKLIKKDTNISELKMSKMPWDVMLYGKPYQVVSIKGYVHTIGGRRGENDLWMYPRDESPTYENLIEFQ,-2.61
12,HMLPGLGPIERAQFMLQAIPGISPTRSAALIDKFGSIAGIAQASIKDIQTIEGIGKKTATTLYEVLNAG,-0.341
13,HMDILPRMVASEMRAVGVPPERMTREEKGTVIRNLMNAGIHQMKGAVVEIARQLHLSEPTVYRYIKREKG,-0.327
14,HMTSEVLTNATIVKMVKAKLSDDIIIDEINNARVNFDVSPEGIKSLTAQNVTEPVIETMKKAVAAQESI,0.479
15,HMKKSIRIFELMKAKVAAEIFDQMILEGKIEDVFDIIVRLKDSNVSNIMKTMSVENSSRLVQKLERYNKD,-2.18
16,HMSGPSDRDLFDEALALLSGSGREPDYHEARIRLGTLVEQFPESKWAEGAKALLSMLDRVSALQV,0.246
17,HMDLKENQHILQISNKGVQMGNVLKDLIIQTLNITNGNQIKAAKLLAISRAKLRYRIEQLGINISGKNI,-0.215
18,HMNALVAKYKQGVTEEQQQGQGIIIIKRVVVRDQEAWVYEKKIFDWGGVSYFRDKQRITASTFNQETAL,-2.86
19,HMERFRQVNAGMTRDDIYQLLGKPTEKTPFPLKNEEVWSWRHQADGQTVALFNIHLDPDGRVTTTSQSMDL,0.021
20,HMGDTHKVPGVKGVNVEQAMDMLSRLDLKAVVIDSVYVKDKKLGTVIEQNPVEGSVVKPGRPIYLVVNSRS,0.242
21,HMNKMIIELGEKLKALRTENHLRQDQVARLVNVEKSSISMYETGMRQPSYTTLVRLADVFNVTTDYLLGRK,-2.24
22,HMLADIGGRIADLRREVGLTQGELAEKADISVVHLSNIELGKKTPGLSTLIRIAEALDVATDWILQA,-1.02
23,HMPSEAVQNIIGNVKSKRRVATIGQARGLASNVIKEGKFDNVSNTAMVNRLIDLGIISNSIGYQ,0.115
24,HMDLPDYYFRVRENGAVVFRVGTENRQRRIEMVEIATVNVKNGNIKPHGEVDLTKADRLAIGEWLAARQAQ,-1.36
25,HMDPRTSSLTPQERKVLELVGGGLTNRQIAAEMFLAEKTVKNYVSSLLAKLGFERRTQAAVFIASPAF,-0.541
